The series has as its system Bacillus subtilis. Kind of series: cleaved RNA product abundance (RNA/gDNA barcode ratio) relative to median wild-type variant (ratio to wild type); higher = more accumulation of the downstream cleavage product. Conditions: cleavage site: cggR-gapA (positions -7 to +36 mutated). The method in brief:
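In LB at 37°C, B. subtilis cultures went from OD600 0.0003 to 0.3. Their chromosomes held barcoded reporter mRNAs, truncated aprE or tetM, with RNase Y cleavage-site windows mutagenized via oligos at a 9% error rate. Cleaved RNA, chosen by gel, was reverse transcribed and barcode-sequenced alongside genomic DNA barcodes with UMI collapsing, giving a per-construct RNA:gDNA ratio scaled to the median construct with the unmutated site. This scaled ratio is termed cleaved product abundance.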

Setting [1] is: experiment (reporter, strain, medium): exp 4a: truncated aprE reporter, strain BJT201 with 2% xylose (RNase J1 expressed).
Where [2] appears, read: experiment (reporter, strain, medium): exp 2b: truncated aprE reporter, strain BJT200.

For the sequence “ACAGACGAAGGAGCCGCAAAGAAGTTATAAAGGGATGAATAATCCCTCCATATAAATATCTCTCACTTATTTAAA”, the “cleaved RNA product abundance” value under setting [1] was found to be 0.266.
As for “ACAGACGAAGGAGCCGCAAAGAAGTTATAAAGGGATGAATAATCCCTCTATATAAATATCTCTCACTTATTTAAA”, the “cleaved RNA product abundance” value under setting [1] was 0.941.
Same read-out and setting: the result for “ACAGACGAAGGAGCCGCAAAGAAGTTATAAAGGGATGAATAATCCCTGAATATAAATATCTCTCACTTATTTAAA” reads 0.634.
In the case of “ACAGACGAAGGAGCCGCAAAGAAGTTATAAAGGGATGAATAATCCCTTAATATAAATATCTCTCACTTATTTAAA”, the “cleaved RNA product abundance” value reads like this: under setting [2], 0.56; under setting [1], 0.593.
In the case of “ACAGACGAAGGAGCCGCAAAGAAGTTATAAAGGGATGAATAATCCGTCAATATAAATATCTCTCACTTATTTAAA”, under setting [2], the “cleaved RNA product abundance” value stood at 0.154.
For “ACAGACGAAGGAGCCGCAAAGAAGTTATAAAGGGATGAATAATCCTTCAATATAAATATCTCTCACTTATTTAAA”, the “cleaved RNA product abundance” value is, setting by setting: under setting [2], 0.174; under setting [1], 0.283.
As to “ACAGACGAAGGAGCCGCAAAGAAGTTATAAAGGGATGAATAATCTCTCAATATAAATATCTCTCACTTATTTAAA”, the “cleaved RNA product abundance” value under setting [1] stood at 0.338.
Turning to “ACAGACGAAGGAGCCGCAAAGAAGTTATAAAGGGATGAATAATGCCTCAATATAAATATCTCTCACTTATTTAAA”, under setting [2], the “cleaved RNA product abundance” value turned out to be 0.113.
For the sequence “ACAGACGAAGGAGCCGCAAAGAAGTTATAAAGGGATGAATAATTCCTCAATATAAATATCTCTCACTTATTTAAA”, under setting [1], the “cleaved RNA product abundance” value was determined as 0.293.
The same measure, in the same setting: the result for “ACAGACGAAGGAGCCGCAAAGAAGTTATAAAGGGATGAATACTCCCTCAATATAAATATCTCTCACTTATTTAAA” reads 0.287; that for “ACAGACGAAGGAGCCGCAAAGAAGTTATAAAGGGATGAATATTCCCTCAATATAAATATCTCTCACTTATTTAAA”, 0.281.
For “ACAGACGAAGGAGCCGCAAAGAAGTTATAAAGGGATGAATGATCCCTCAATATAAATATCTCTCACTTATTTAAA”, the “cleaved RNA product abundance” value under setting [2] was 0.193 and the “cleaved RNA product abundance” value under setting [1] came to 0.273.
The like results for “ACAGACGAAGGAGCCGCAAAGAAGTTATAAAGGGATGAATTATCCCTCAATATAAATATCTCTCACTTATTTAAA” were, in that order, 0.279 and 0.469.
As for “ACAGACGAAGGAGCCGCAAAGAAGTTATAAAGGGATGACTAATCCCTCAATATAAATATCTCTCACTTATTTAAA”, the “cleaved RNA product abundance” value under setting [1] is 0.286 and the “cleaved RNA product abundance” value (experiment (reporter, strain, medium): exp 6: tetM reporter, strain 168) turned out to be 0.319.
With “ACAGACGAAGGAGCCGCAAAGAAGTTATAAAGGGATGCATAATCCCTCAATATAAATATCTCTCACTTATTTAAA”, the “cleaved RNA product abundance” value runs as follows: under setting [2], 0.309; under setting [1], 0.241.
For “ACAGACGAAGGAGCCGCAAAGAAGTTATAAAGGGATGTATAATCCCTCAATATAAATATCTCTCACTTATTTAAA”, the “cleaved RNA product abundance” value runs as follows: under setting [2], 0.322; under setting [1], 0.401.
For “ACAGACGAAGGAGCCGCAAAGAAGTTATAAAGGGATTAATAATCCCTCAATATAAATATCTCTCACTTATTTAAA”, the “cleaved RNA product abundance” value came out at 0.333 under setting [2] and 0.362 under setting [1].
Take “ACAGACGAAGGAGCCGCAAAGAAGTTATAAAGGGCTGAATAATCCCTCAATATAAATATCTCTCACTTATTTAAA”: under setting [1], the “cleaved RNA product abundance” value turned out to be 0.286.
On the same count and under the same terms, next, “ACAGACGAAGGAGCCGCAAAGAAGTTATAAAGGGGTGAATAATCCCTCAATATAAATATCTCTCACTTATTTAAA”: 0.422.
For “ACAGACGAAGGAGCCGCAAAGAAGTTATAAAGGGTTGAATAATCCCTCAATATAAATATCTCTCACTTATTTAAA”, the “cleaved RNA product abundance” value reads like this: under setting [2], 0.163; under setting [1], 0.24.
As to “ACAGACGAAGGAGCCGCAAAGAAGTTATAAAGGTATGAATAATCCCTCAATATAAATATCTCTCACTTATTTAAA”, the “cleaved RNA product abundance” value reads like this: under setting [2], 0.0925; under setting [1], 0.0975.
The like results for “ACAGACGAAGGAGCCGCAAAGAAGTTATAAAGTGATGAATAATCCCTCAATATAAATATCTCTCACTTATTTAAA” were, in that order, 0.0907 and 0.117.
Regarding “ACAGACGAAGGAGCCGCAAAGAAGTTATAAATGGATGAATAATCCCTCAATATAAATATCTCTCACTTATTTAAA”, the “cleaved RNA product abundance” value was 0.113 under setting [2] and 0.165 under setting [1].
Consider “ACAGACGAAGGAGCCGCAAAGAAGTTATAAGGGGATGAATAATCCCTCAATATAAATATCTCTCACTTATTTAAA”, for which the “cleaved RNA product abundance” value under setting [1] was 0.49.
Consider “ACAGACGAAGGAGCCGCAAAGAAGTTATAATGGGATGAATAATCCCTCAATATAAATATCTCTCACTTATTTAAA”, for which the “cleaved RNA product abundance” value under setting [2] turned out to be 0.29 and the “cleaved RNA product abundance” value under setting [1] is 0.293.
For the sequence “ACAGACGAAGGAGCCGCAAAGAAGTTATATAGGGATGAATAATCCCTCAATATAAATATCTCTCACTTATTTAAA”, the “cleaved RNA product abundance” value under setting [1] was 0.664.
Same read-out and setting: the result for “ACAGACGAAGGAGCCGCAAAGAAGTTATCAAATGATGAATAATCCCTCAATATAAATATCTCTCACTTATTTAAA” reads 0.123; that for “ACAGACGAAGGAGCCGCAAAGAAGTTATCAACGGATGAATAATCCCTCAATATAAATATCTCTCACTTATTTAAA”, 0.15.
On to “ACAGACGAAGGAGCCGCAAAGAAGTTATCAAGAGATGAATAATCCCTCAATATAAATATCTCTCACTTATTTAAA”, for which the “cleaved RNA product abundance” value reads like this: under setting [2], 0.0893; under setting [1], 0.116.
As for “ACAGACGAAGGAGCCGCAAAGAAGTTATCAAGCGATGAATAATCCCTCAATATAAATATCTCTCACTTATTTAAA”, the “cleaved RNA product abundance” value under setting [1] was found to be 0.0711.
The same measure, in the same setting: next, “ACAGACGAAGGAGCCGCAAAGAAGTTATCAAGGAATGAATAATCCCTCAATATAAATATCTCTCACTTATTTAAA”: 0.11.
In the case of “ACAGACGAAGGAGCCGCAAAGAAGTTATCAAGGCATGAATAATCCCTCAATATAAATATCTCTCACTTATTTAAA”, the “cleaved RNA product abundance” value under setting [1] is 0.0787.
Still for that read-out and setting: next, “ACAGACGAAGGAGCCGCAAAGAAGTTATCAAGGGATAAATAATCCCTCAATATAAATATCTCTCACTTATTTAAA”: 0.234.
Consider “ACAGACGAAGGAGCCGCAAAGAAGTTATCAAGGGATCAATAATCCCTCAATATAAATATCTCTCACTTATTTAAA”, for which, under setting [2], the “cleaved RNA product abundance” value turned out to be 0.24.
On to “ACAGACGAAGGAGCCGCAAAGAAGTTATCAAGGGATGAAAAATCCCTCAATATAAATATCTCTCACTTATTTAAA”, for which, under setting [1], the “cleaved RNA product abundance” value turned out to be 0.272.
For the sequence “ACAGACGAAGGAGCCGCAAAGAAGTTATCAAGGGATGAATAAACCCTCAATATAAATATCTCTCACTTATTTAAA”, the “cleaved RNA product abundance” value runs as follows: under setting [2], 0.148; under setting [1], 0.205.
The like results for “ACAGACGAAGGAGCCGCAAAGAAGTTATCAAGGGATGAATAATACCTCAATATAAATATCTCTCACTTATTTAAA” were, in that order, 0.149 and 0.132.
The like results for “ACAGACGAAGGAGCCGCAAAGAAGTTATCAAGGGATGAATAATCACTCAATATAAATATCTCTCACTTATTTAAA” were, in that order, 0.123 and 0.139.
Consider “ACAGACGAAGGAGCCGCAAAGAAGTTATCAAGGGATGAATAATCCATCAATATAAATATCTCTCACTTATTTAAA”, for which the “cleaved RNA product abundance” value under setting [1] came out at 0.321.
On to “ACAGACGAAGGAGCCGCAAAGAAGTTATCAAGGGATGAATAATCCCTAAATATAAATATCTCTCACTTATTTAAA”, for which, under setting [1], the “cleaved RNA product abundance” value is 0.333.

The record behind these values is the supplement of paper PMC11780869.
